Test results from the supplement of paper PMC9112550, “Optimization of the antimicrobial peptide Bac7 by deep mutational scanning” (BMC Biology, 2022).

The sequences below were run on Escherichia coli TOP10 (assay: shrunken log2 fold change of peptide-encoding DNA abundance (4.5 h post-induction vs induction); higher = less antimicrobial activity (less host growth inhibition)). Settings: time post-induction: 4.5 h; library: site-saturation at positions 5, 18, 19, 20.
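Note: peptides expressed intracellularly from a pBAD plasmid library in pooled LB shake-flask culture, induced with 0.3% L-arabinose, DNA abundance read by NGS, three biological replicates, DESeq2 with apeglm shrinkage.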

Q: How did the “shrunken log2 fold change” value turn out when RRIRQRPPRLPRPRPRPDKDPRP was run?
A: -0.0597

Q: With RRIRHRPPRLPRPRPRPPEMPRP as the sequence, how does the “shrunken log2 fold change” value read?
A: 0.484

Q: With RRIRTRPPRLPRPRPRPHLAPRP as the sequence, how does the “shrunken log2 fold change” value read?
A: 0.159

Q: RRIRYRPPRLPRPRPRPCGQPRP was tested. Which “shrunken log2 fold change” value did it give?
A: -0.0335

Q: Which “shrunken log2 fold change” value does the source give for RRIRTRPPRLPRPRPRPEWMPRP here?
A: -0.048

Q: RRIRTRPPRLPRPRPRPGEAPRP was tested. Which “shrunken log2 fold change” value did it give?
A: 0.282

Q: RRIRSRPPRLPRPRPRPCRRPRP was tested. Which “shrunken log2 fold change” value did it give?
A: -0.241

Q: With RRIRWRPPRLPRPRPRPCCLPRP as the sequence, how does the “shrunken log2 fold change” value read?
A: 0.00932

Q: For RRIRARPPRLPRPRPRPQNKPRP, which “shrunken log2 fold change” value is on record?
A: -0.232

Q: With RRIRWRPPRLPRPRPRPGNNPRP as the sequence, how does the “shrunken log2 fold change” value read?
A: 0.1

Q: RRIRQRPPRLPRPRPRPYRPPRP was tested. Which “shrunken log2 fold change” value did it give?
A: -0.103

Q: With RRIRSRPPRLPRPRPRPQCHPRP as the sequence, how does the “shrunken log2 fold change” value read?
A: -0.113

Q: RRIRTRPPRLPRPRPRPHFMPRP was tested. Which “shrunken log2 fold change” value did it give?
A: -0.339

Q: With RRIRTRPPRLPRPRPRPFDNPRP as the sequence, how does the “shrunken log2 fold change” value read?
A: -1.32

Q: RRIRCRPPRLPRPRPRPRRLPRP was tested. Which “shrunken log2 fold change” value did it give?
A: 0.133

Q: For RRIRVRPPRLPRPRPRPHEAPRP, which “shrunken log2 fold change” value is on record?
A: 0.145

Q: RRIRARPPRLPRPRPRPYTKPRP was tested. Which “shrunken log2 fold change” value did it give?
A: -0.156

Q: With RRIRCRPPRLPRPRPRPIAAPRP as the sequence, how does the “shrunken log2 fold change” value read?
A: 0.549

Q: How did the “shrunken log2 fold change” value turn out when RRIRERPPRLPRPRPRPKLNPRP was run?
A: -0.254

Q: How did the “shrunken log2 fold change” value turn out when RRIRVRPPRLPRPRPRPECAPRP was run?
A: 0.376

Q: How did the “shrunken log2 fold change” value turn out when RRIRNRPPRLPRPRPRPDNPPRP was run?
A: -0.168

Q: How did the “shrunken log2 fold change” value turn out when RRIRVRPPRLPRPRPRPAKDPRP was run?
A: 0.00226

Q: RRIRRRPPRLPRPRPRPTPAPRP was tested. Which “shrunken log2 fold change” value did it give?
A: 1.55

Q: For RRIRMRPPRLPRPRPRPEWCPRP, which “shrunken log2 fold change” value is on record?
A: 0.234

Q: For RRIRCRPPRLPRPRPRPGVMPRP, which “shrunken log2 fold change” value is on record?
A: 0.0691

Q: Which “shrunken log2 fold change” value does the source give for RRIRVRPPRLPRPRPRPPNYPRP here?
A: -0.194

Q: With RRIRIRPPRLPRPRPRPENLPRP as the sequence, how does the “shrunken log2 fold change” value read?
A: -0.0595

Q: Which “shrunken log2 fold change” value does the source give for RRIRARPPRLPRPRPRPHCTPRP here?
A: 1.18

Q: For RRIRWRPPRLPRPRPRPPERPRP, which “shrunken log2 fold change” value is on record?
A: 0.816

Q: For RRIRLRPPRLPRPRPRPDPKPRP, which “shrunken log2 fold change” value is on record?
A: 0.331

Q: RRIRSRPPRLPRPRPRPMHFPRP was tested. Which “shrunken log2 fold change” value did it give?
A: 0.0521

Q: RRIRARPPRLPRPRPRPMQGPRP was tested. Which “shrunken log2 fold change” value did it give?
A: 0.601

Q: For RRIRVRPPRLPRPRPRPIMRPRP, which “shrunken log2 fold change” value is on record?
A: 0.0562

Q: For RRIRKRPPRLPRPRPRPVPSPRP, which “shrunken log2 fold change” value is on record?
A: -0.156

Q: Which “shrunken log2 fold change” value does the source give for RRIRCRPPRLPRPRPRPVPAPRP here?
A: 0.457

Q: RRIRCRPPRLPRPRPRPIIIPRP was tested. Which “shrunken log2 fold change” value did it give?
A: -0.816

Q: With RRIRARPPRLPRPRPRPHITPRP as the sequence, how does the “shrunken log2 fold change” value read?
A: -0.294

Q: For RRIRARPPRLPRPRPRPFEFPRP, which “shrunken log2 fold change” value is on record?
A: 0.0786

Q: Which “shrunken log2 fold change” value does the source give for RRIRERPPRLPRPRPRPTILPRP here?
A: -0.0814

Q: With RRIRRRPPRLPRPRPRPAPDPRP as the sequence, how does the “shrunken log2 fold change” value read?
A: 1.65

Q: RRIRPRPPRLPRPRPRPTPAPRP was tested. Which “shrunken log2 fold change” value did it give?
A: 0.618

Q: Which “shrunken log2 fold change” value does the source give for RRIRARPPRLPRPRPRPKDYPRP here?
A: -0.248

Q: With RRIRVRPPRLPRPRPRPSMGPRP as the sequence, how does the “shrunken log2 fold change” value read?
A: -0.399

Q: With RRIRQRPPRLPRPRPRPAVNPRP as the sequence, how does the “shrunken log2 fold change” value read?
A: -0.0181

Q: RRIRLRPPRLPRPRPRPSMNPRP was tested. Which “shrunken log2 fold change” value did it give?
A: -0.345

Q: For RRIRVRPPRLPRPRPRPYGMPRP, which “shrunken log2 fold change” value is on record?
A: -0.0584

Q: For RRIRIRPPRLPRPRPRPCEMPRP, which “shrunken log2 fold change” value is on record?
A: 0.0583

Q: RRIRKRPPRLPRPRPRPSCFPRP was tested. Which “shrunken log2 fold change” value did it give?
A: 0.109

Q: RRIRRRPPRLPRPRPRPERSPRP was tested. Which “shrunken log2 fold change” value did it give?
A: 0.0187

Q: With RRIRMRPPRLPRPRPRPKTHPRP as the sequence, how does the “shrunken log2 fold change” value read?
A: 0.612

Q: Which “shrunken log2 fold change” value does the source give for RRIRARPPRLPRPRPRPSYFPRP here?
A: -0.555

Q: With RRIRARPPRLPRPRPRPQSYPRP as the sequence, how does the “shrunken log2 fold change” value read?
A: -0.118

Q: RRIRGRPPRLPRPRPRPCNMPRP was tested. Which “shrunken log2 fold change” value did it give?
A: -0.0796

Q: With RRIRWRPPRLPRPRPRPHAMPRP as the sequence, how does the “shrunken log2 fold change” value read?
A: 0.00797

Q: Which “shrunken log2 fold change” value does the source give for RRIRDRPPRLPRPRPRPRSNPRP here?
A: 0.148

Q: RRIRVRPPRLPRPRPRPPASPRP was tested. Which “shrunken log2 fold change” value did it give?
A: 0.398

Q: Which “shrunken log2 fold change” value does the source give for RRIRNRPPRLPRPRPRPVHGPRP here?
A: -0.0581

Q: For RRIRDRPPRLPRPRPRPRLFPRP, which “shrunken log2 fold change” value is on record?
A: 0.653

Q: With RRIRPRPPRLPRPRPRPMHMPRP as the sequence, how does the “shrunken log2 fold change” value read?
A: 0.0173

Q: With RRIRHRPPRLPRPRPRPTTDPRP as the sequence, how does the “shrunken log2 fold change” value read?
A: -0.136

Q: Which “shrunken log2 fold change” value does the source give for RRIRQRPPRLPRPRPRPYRDPRP here?
A: -0.204

Q: RRIRRRPPRLPRPRPRPCKFPRP was tested. Which “shrunken log2 fold change” value did it give?
A: 0.123

Q: RRIRGRPPRLPRPRPRPTPPPRP was tested. Which “shrunken log2 fold change” value did it give?
A: 1.06

Q: Which “shrunken log2 fold change” value does the source give for RRIRYRPPRLPRPRPRPSMAPRP here?
A: -0.572

Q: For RRIRARPPRLPRPRPRPCHRPRP, which “shrunken log2 fold change” value is on record?
A: 0.0386

Q: For RRIRGRPPRLPRPRPRPSCKPRP, which “shrunken log2 fold change” value is on record?
A: 0.319

Q: RRIRWRPPRLPRPRPRPLGCPRP was tested. Which “shrunken log2 fold change” value did it give?
A: 0.438

Q: RRIRHRPPRLPRPRPRPHPMPRP was tested. Which “shrunken log2 fold change” value did it give?
A: -0.076

Q: For RRIRRRPPRLPRPRPRPDLVPRP, which “shrunken log2 fold change” value is on record?
A: 0.0743

Q: How did the “shrunken log2 fold change” value turn out when RRIRYRPPRLPRPRPRPFFVPRP was run?
A: -0.689

Q: With RRIRFRPPRLPRPRPRPKQNPRP as the sequence, how does the “shrunken log2 fold change” value read?
A: 0.249

Q: How did the “shrunken log2 fold change” value turn out when RRIRFRPPRLPRPRPRPRYTPRP was run?
A: -0.15

Q: For RRIRGRPPRLPRPRPRPMQKPRP, which “shrunken log2 fold change” value is on record?
A: 0.61

Q: For RRIRRRPPRLPRPRPRPTAHPRP, which “shrunken log2 fold change” value is on record?
A: 1.51

Q: For RRIRLRPPRLPRPRPRPINQPRP, which “shrunken log2 fold change” value is on record?
A: -0.321

Q: RRIRLRPPRLPRPRPRPDAEPRP was tested. Which “shrunken log2 fold change” value did it give?
A: 0.326

Q: RRIRARPPRLPRPRPRPGHAPRP was tested. Which “shrunken log2 fold change” value did it give?
A: 0.16

Q: Which “shrunken log2 fold change” value does the source give for RRIRVRPPRLPRPRPRPMQMPRP here?
A: -0.0841

Q: With RRIRCRPPRLPRPRPRPWEYPRP as the sequence, how does the “shrunken log2 fold change” value read?
A: 0.0155

Q: For RRIRLRPPRLPRPRPRPMSWPRP, which “shrunken log2 fold change” value is on record?
A: 0.0708

Q: With RRIRVRPPRLPRPRPRPGYAPRP as the sequence, how does the “shrunken log2 fold change” value read?
A: 0.0532

Q: Which “shrunken log2 fold change” value does the source give for RRIRARPPRLPRPRPRPSPIPRP here?
A: -0.0445

Q: RRIRIRPPRLPRPRPRPGWLPRP was tested. Which “shrunken log2 fold change” value did it give?
A: -0.0831

Q: How did the “shrunken log2 fold change” value turn out when RRIRPRPPRLPRPRPRPVRSPRP was run?
A: 0.371

Q: How did the “shrunken log2 fold change” value turn out when RRIRRRPPRLPRPRPRPMDGPRP was run?
A: 0.0167

Q: Which “shrunken log2 fold change” value does the source give for RRIRKRPPRLPRPRPRPTIKPRP here?
A: 0.104

Q: RRIRWRPPRLPRPRPRPVIPPRP was tested. Which “shrunken log2 fold change” value did it give?
A: -0.0775

Q: How did the “shrunken log2 fold change” value turn out when RRIRVRPPRLPRPRPRPIVQPRP was run?
A: -0.223

Q: With RRIRPRPPRLPRPRPRPDVLPRP as the sequence, how does the “shrunken log2 fold change” value read?
A: -0.709

Q: How did the “shrunken log2 fold change” value turn out when RRIRRRPPRLPRPRPRPPVLPRP was run?
A: 0.18

Q: How did the “shrunken log2 fold change” value turn out when RRIRIRPPRLPRPRPRPKLSPRP was run?
A: 0.144

Q: With RRIRYRPPRLPRPRPRPQDYPRP as the sequence, how does the “shrunken log2 fold change” value read?
A: -0.236

Q: With RRIRERPPRLPRPRPRPSAKPRP as the sequence, how does the “shrunken log2 fold change” value read?
A: 0.0244

Q: With RRIRSRPPRLPRPRPRPTDKPRP as the sequence, how does the “shrunken log2 fold change” value read?
A: -0.242

Q: For RRIRRRPPRLPRPRPRPENRPRP, which “shrunken log2 fold change” value is on record?
A: 0.0232

Q: With RRIRHRPPRLPRPRPRPEMQPRP as the sequence, how does the “shrunken log2 fold change” value read?
A: -0.000952

Q: With RRIRSRPPRLPRPRPRPLDTPRP as the sequence, how does the “shrunken log2 fold change” value read?
A: -0.157

Q: For RRIRTRPPRLPRPRPRPSYVPRP, which “shrunken log2 fold change” value is on record?
A: -0.305

Q: Which “shrunken log2 fold change” value does the source give for RRIRCRPPRLPRPRPRPKDWPRP here?
A: 0.378

Q: Which “shrunken log2 fold change” value does the source give for RRIRLRPPRLPRPRPRPCQWPRP here?
A: -0.0969

Q: RRIRRRPPRLPRPRPRPNWPPRP was tested. Which “shrunken log2 fold change” value did it give?
A: 0.118

Q: For RRIRVRPPRLPRPRPRPSTVPRP, which “shrunken log2 fold change” value is on record?
A: -0.0673

Q: Which “shrunken log2 fold change” value does the source give for RRIRMRPPRLPRPRPRPFTNPRP here?
A: 3.34

Q: For RRIRKRPPRLPRPRPRPVYVPRP, which “shrunken log2 fold change” value is on record?
A: -0.0394

Q: With RRIRIRPPRLPRPRPRPNEWPRP as the sequence, how does the “shrunken log2 fold change” value read?
A: -0.00088

Q: With RRIRERPPRLPRPRPRPRHTPRP as the sequence, how does the “shrunken log2 fold change” value read?
A: -0.187

Q: For RRIRMRPPRLPRPRPRPLDVPRP, which “shrunken log2 fold change” value is on record?
A: 0.287

Q: With RRIRSRPPRLPRPRPRPIHWPRP as the sequence, how does the “shrunken log2 fold change” value read?
A: 0.151

Q: With RRIRLRPPRLPRPRPRPPQSPRP as the sequence, how does the “shrunken log2 fold change” value read?
A: 0.0818
